Laboratory results taken from IntAct's records for PubMed 31515488.

B1: Ligand of Numb protein X 2 (Homo sapiens), Q8N448 (parent)
chain: MGTTSDEMVSVEQTSSSSLNPLCFECGQQHWTRENHLYNYQNEVDDDLVCHICLQPLLQPLDTPCGHTFCYKCLRNFLQEKDFCPLDRKRLHFKLCKKSSILVHKLLDKLLVLCPFSSVCKDVMQRCDLEAHLKNRCPGASHRRVALERRKTSRTQAEIENENGPTLLDPAGTLSPEADCLGTGAVPVERHLTSASLSTWSEEPGLDNPAFEESAGADTTQQPLSLPEGEITTIEIHRSNPYIQLGISIVGGNETPLINIVIQEVYRDGVIARDGRLLAGDQILQVNNYNISNVSHNYARAVLSQPCNTLHLTVLRERRFGNRAHNHSDSNSPREEIFQVALHKRDSGEQLGIKLVRRTDEPGVFILDLLEGGLAAQDGRLSSNDRVLAINGHDLKYGTPELAAQIIQASGERVNLTIARPGKPQPGNTIREAGNHSSSSQHHTPPPYYSRPSSHKDLTQCVTCQEKHITVKKEPHESLGMTVAGGRGSKSGELPIFVTSVPPHGCLARDGRIKRGDVLLNINGIDLTNLSHSEAVAMLKASAASPAVALKALEVQIVEEATQNAEEQPSTFSENEYDASWSPSWVMWLGLPSTLHSCHDIVLRRSYLGSWGFSIVGGYEENHTNQPFFIKTIVLGTPAYYDGRLKCGDMIVAVNGLSTVGMSHSALVPMLKEQRNKVTLTVICWPGSLV
partner: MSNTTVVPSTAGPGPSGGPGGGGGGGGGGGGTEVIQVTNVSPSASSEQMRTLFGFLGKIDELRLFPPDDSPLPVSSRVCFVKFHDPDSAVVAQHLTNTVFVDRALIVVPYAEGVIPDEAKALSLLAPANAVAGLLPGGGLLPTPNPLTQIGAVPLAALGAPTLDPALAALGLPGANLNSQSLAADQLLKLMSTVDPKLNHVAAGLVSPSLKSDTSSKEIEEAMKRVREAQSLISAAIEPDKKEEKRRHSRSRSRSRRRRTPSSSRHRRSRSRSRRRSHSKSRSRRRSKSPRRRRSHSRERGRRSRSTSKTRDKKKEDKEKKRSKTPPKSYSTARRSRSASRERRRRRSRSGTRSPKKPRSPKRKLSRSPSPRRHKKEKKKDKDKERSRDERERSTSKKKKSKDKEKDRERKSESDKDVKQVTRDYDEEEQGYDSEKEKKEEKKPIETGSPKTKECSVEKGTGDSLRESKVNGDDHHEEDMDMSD
B2: Emerin (Homo sapiens), P50402 (parent)
chain: MDNYADLSDTELTTLLRRYNIPHGPVVGSTRRLYEKKIFEYETQRRRLSPPSSSAASSYSFSDLNSTRGDADMYDLPKKEDALLYQSKGYNDDYYEESYFTTRTYGEPESAGPSRAVRQSVTSFPDADAFHHQVHDDDLLSSSEEECKDRERPMYGRDSAYQSITHYRPVSASRSSLDLSYYPTSSSTSFMSSSSSSSSWLTRRAIRPENRAPGAGLGQDRQVPLWGQLLLFLVFVIVLFFIYHFMQAEEGNPF
partner: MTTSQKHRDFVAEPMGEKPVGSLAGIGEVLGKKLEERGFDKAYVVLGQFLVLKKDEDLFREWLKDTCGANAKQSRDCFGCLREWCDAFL
B3: Transcription factor 12 (Homo sapiens), Q99081-3 (parent)
chain: MNPQQQRMAAIGTDKELSDLLDFSAMFSPPVNSGKTRPTTLGSSQFSGSGIDERGGTTSWGTSGQPSPSYDSSRGFTDSPHYSDHLNDSRLGAHEGLSPTPFMNSNLMGKTSERGSFSLYSRDTGLPGCQSSLLRQDLGLGSPAQLSSSGKPGTAYYSFSATSSRRRPLHDSAALDPLQAKKVRKVPPGLPSSVYAPSPNSDDFNRESPSYPSPKPPTSMFASTFFMQDGTHNSSDLWSSSNGMSQPGFGGILGTSTSHMSQSSSYGNLHSHDRLSYPPHSVSPTDINTSLPPMSSFHRGSTSSSPYVAASHTPPINGSDSILGTRGNAAGSSQTGDALGKALASIYSPDHTSSSFPSNPSTPVGSPSPLTGTSQWPRPGGQAPSSPSYENSLHSLKNRVEQQLHEHLQDAMSFLKDVCEQSRMEDRLDRLDDAIHVLRNHAVGPSTSLPAGHSDIHSLLGPSHNAPIGSLNSNYGGSSLVASSRSASMVGTHREDSVSLNGNHSVLSSTVTTSSTDLNHKTQENYRGGLQSQSGTVVTTEIKTENKEKDENLHEPPSSDDMKSDDESSQKDIKVSSRGRTSSTNEDEDLNPEQKIEREKERRMANNARERLRVRDINEAFKELGRMCQLHLKSEKPQTKLLILHQAVAVILSLEQQVRERNLNPKAACLKRREEEKVSAVSAEPPTTLPGTHPGLSETTNPMGHM
partner: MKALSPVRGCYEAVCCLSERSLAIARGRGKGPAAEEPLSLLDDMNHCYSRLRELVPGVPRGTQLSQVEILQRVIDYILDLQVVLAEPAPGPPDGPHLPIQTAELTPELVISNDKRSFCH

Variants of: B1
Conditions: with srs11_human SRSF11, Q05519

| effect of a mutation on the interaction | Variant |
| --- | --- |
| with no effect | S198P |
| with no effect | S141A |
| disrupting interaction strength | Y266C |

Variants of: B2
Conditions: with baf_human BANF1, O75531

| effect of a mutation on the interaction | Variant |
| --- | --- |
| with no effect | R203H |
| with no effect | P183T |
| with no effect | D72V |
| with no effect | G156S |
| with no effect | S54F |

Variants of: B3
Conditions: with id3_human ID3, Q02535

| effect of a mutation on the interaction | Variant |
| --- | --- |
| with no effect | A482V |
| with no effect | N606H |
| with no effect | Y120C |
